In patent US20250312438A1 (published 2025):
Numbering of substitutions follows the chain as printed. Numbers in names are those of the source. Like-named read-outs stand apart in the source and are kept apart here.

What was measured:
BJAB cells = BJAB cells (human, UniProt P01903 26-254); assay: flow
[1] = biological target: T1, recombinant HLA-DR (DRA*01:01/DRB1*04:01) with covalently attached Influenza Hemagglutinin (HA) peptide (human;Influenza); assay: BLI
[2] = biological target: T1, recombinant HLA-DR …; assay: BLI; remark: listed apart in the source
[3] = biological target: HLA-DRA*01:01 W168R / HLA-DRB1*04:01 F31I/H33N; assay: BLI
[4] = biological target: HLA-DRA*01:01 W168R / HLA-DRB1*04:01 No mut.; assay: BLI
[5] = biological target: HLA-DRA*01:01 W168R / HLA-DRB1*04:01 F31V/H33N; assay: BLI
[6] = biological target: HLA-DRA*01:01 No mut. / HLA-DRB1*04:01 F31I/H33N; assay: BLI
[7] = biological target: HLA-DRA*01:01 No mut. / HLA-DRB1*04:01 F31V/H33N; assay: BLI
[8] = biological target: T1, recombinant HLA-DR …; assay: BLI; remark: listed apart in the source

Chain of BJAB cells (P01903 whole entry): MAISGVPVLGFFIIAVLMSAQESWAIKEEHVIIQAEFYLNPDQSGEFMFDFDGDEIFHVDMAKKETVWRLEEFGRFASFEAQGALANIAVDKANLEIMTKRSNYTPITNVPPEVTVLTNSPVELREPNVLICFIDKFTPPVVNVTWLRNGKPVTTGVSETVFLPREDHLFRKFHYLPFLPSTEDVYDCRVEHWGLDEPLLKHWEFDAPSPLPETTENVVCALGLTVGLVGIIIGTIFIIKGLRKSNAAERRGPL

B1: V17 (antibody, V domains shown)
VH: QVTLKESGPVLVKPTETLTLTCTVSGFSLTSYGVHWIRQPPGKALEWLAVIWAGGSISYSTSLMSRLTISKDTSKSQVVLTMTNMDPVDTATYYCARAYGDYVHYAMDYWGQGTLVTVSS
VL: DIQMTQSPSSLSASVGDRVTITCRASQEISGYLTWLQQKPGKAPKLLIYAASTLDSGVPSRFSGSGSGTDFTLTISSLQPEDFATYYCLQYTNYPLTFGQGTKLEIK
Binder B1 has an EC50 (BJAB cells) of 5.02 µg/mL.

B2: V14 with the V71K and F78V mutations in the VH (antibody, V domains shown)
VH: QVQLQESGPGLVKPSETLSLTCTVSGFSLTSYGVHWIRQPPGKGLEWIGVIWAGGSINYNSALMSRVTISKDTSKNQVSLKLSSVTAADTAVYYCARAYGDYVHYAMDYWGQGTLVTVSS
VL: B1 VL
With B2 the Kd [1] was 206 nM.

B3: V19 (R66 back-mutation) (antibody, V domains shown)
VH: B1 VH
VL: B1 VL with G66R
B3 was tested, and the EC50 (BJAB cells) was 2.02 µg/mL.

B4: humanized 44H10 variant V21 (antibody, V domains shown)
VH: B1 VH
VL: B1 VL with S60K, G66R
B4 was tested, and the Kd [1] was 157 nM and the Kd [2] was 221 nM.

B5: V20 (K60 back-mutation) (antibody, V domains shown)
VH: B1 VH
VL: B1 VL with S60K
B5 was tested, and the EC50 (BJAB cells) was 2.21 µg/mL.

B6: 44H10 (antibody, V domains shown)
VH: QVQLKESGPGLVAPSQSLSITCTVSGFSLTSYGVHWVRQPPGKGLEWLGVIWAGGSINYNSALMSRLSISKDNFKSQVFLKMSSLQTDDTAMYYCARAYGDYVHYAMDYWGQGTSVTASS
VL: DIQMTQSPSSLSASLGQRVSLTCRASQEISGYLTWLQQKPDGTIKRLVYAASTLDSGVPKRFSGSRSGSDYSLTISSLESEDFADYYCLQYTNYPLTFGAGTKLELKR
B6 gave a Kd [3] of 0.2 nM, a Kd [4] of 2.8 nM and a Kd [5] of 0.2 nM. The Kd [6] was 0.5 nM and the Kd [7] was 0.4 nM.

B7: chimeric human IgG1 anti-HLA-DR 44H10 antibody (antibody, V domains shown)
VH: B6 VH
VL: B6 VL
Work on B7 yielded a Kd [8] of 1.5 nM and a Kd [2] of 199 nM.
